Biological target: His-Pak4cat (UniProt O96013)
Sequence of UniProt O96013 (O96013 286-591): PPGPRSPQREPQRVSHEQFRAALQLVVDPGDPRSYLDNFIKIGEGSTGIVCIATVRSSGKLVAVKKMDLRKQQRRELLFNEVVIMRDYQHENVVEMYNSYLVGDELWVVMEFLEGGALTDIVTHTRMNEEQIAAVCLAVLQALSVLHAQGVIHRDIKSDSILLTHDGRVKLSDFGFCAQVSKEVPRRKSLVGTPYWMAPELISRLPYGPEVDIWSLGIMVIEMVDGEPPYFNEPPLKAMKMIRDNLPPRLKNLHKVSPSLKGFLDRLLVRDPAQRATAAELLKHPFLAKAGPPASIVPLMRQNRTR

Sequence of GST-Inka1-iBox (Q96EL1 166-203): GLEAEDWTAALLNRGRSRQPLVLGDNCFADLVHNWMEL
Sequence of GST-Inka2-iBox (Q9NTI7 133-193): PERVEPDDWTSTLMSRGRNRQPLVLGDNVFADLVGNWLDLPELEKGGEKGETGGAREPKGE

IC50 of inhibition of His-Pak4cat kinase activity (in vitro kinase assay, ADP-Glo luminescence, AKT1 peptide substrate; dose-response with 0.75 ng-400 ng of GST-Inka1-iBox)	IC50 of inhibition of His-Pak4cat kinase activity (in vitro kinase assay, ADP-Glo luminescence, AKT1 peptide substrate; dose-response with 0.75 ng-400 ng of GST-Inka2-iBox)	Substance
67.7 nM	–	GST-Inka1-iBox (from UniProt Q96EL1 166-203) (domain or fragment)
–	60.3 nM	GST-Inka2-iBox (from UniProt Q9NTI7 133-193) (domain or fragment)
